These results are taken from patent publication US20220339194A1 (A2 BIOTHERAPEUTICS, published 2022).

The target in this experiment is erb-b2 receptor tyrosine kinase 2 (HER2) on target cells (Homo sapiens (Human), UniProt P04626 23-1255). The experiment in a line: cell-based or functional assay.

B1: HER2 CAR CT1094 (receptor)
chain: QVQLQQSGPELKKPGETVKISCKASGYPFTNYGMNWVKQAPGQGLKWMGWINTSTGESTFADDFKGRFDFSLETSANTAYLQINNLKSEDSATYFCARWEVYHGYVPYWGQGTTVTVSSGGGGSGGGGSGGGGSDIQLTQSHKFLSTSVGDRVSITCKASQDVYNAVAWYQQKPGQSPKLLIYSASSRYTGVPSRFTGSGSGPDFTFTISSVQAEDLAVYFCQQHFRTPFTFGSGTKLEIKAEPKSPDKTHTCPPCPKDPKFWVLVVVGGVLACYSLLVTVAFIIFWVRSKRSRLLHSDYMNMTPRRPGPTRKHYQPYAPPRDFAAYRSRVKFSRSADAPAYKQGQNQLYNELNLGRREEYDVLDKRRGRDPEMGGKPRRKNPQEGLYNELQKDKMAEAYSEIGMKGERRRGKGHDGLYQGLSTATKDTYDALHMQALPPR
As for B1, the “EC50 (molecules/cell), Jurkat NFAT luciferase activation, mRNA titration in HeLa; construct CT1094 (CAR only)” value worked out at 6500 molecules/cell; the “EC50 (molecules/cell), Jurkat NFAT luciferase activation, mRNA titration in HeLa; construct CT1113 (CT1094 + Murine blocker)” value was found to be 4900 molecules/cell; the “EC50 (molecules/cell), Jurkat NFAT luciferase activation, mRNA titration in HeLa; construct CT1121 (CT1094 + Human-1 blocker)” value amounted to 4600 molecules/cell; the “EC50 (molecules/cell), Jurkat NFAT luciferase activation, mRNA titration in HeLa; construct CT1187 (CT1094 + Human-2 blocker)” value is 4500 molecules/cell.
